Values of other authors in paper PMC3385930.
pKd: −log10 of the molar value.

Experiments:
[1] = molecular target: Band 3 (Homo sapiens) (UniProt P02730)
[2] = molecular target: Adducin (Homo sapiens) (UniProt P35611)

UniProt P02730, sequence (P02730 whole entry): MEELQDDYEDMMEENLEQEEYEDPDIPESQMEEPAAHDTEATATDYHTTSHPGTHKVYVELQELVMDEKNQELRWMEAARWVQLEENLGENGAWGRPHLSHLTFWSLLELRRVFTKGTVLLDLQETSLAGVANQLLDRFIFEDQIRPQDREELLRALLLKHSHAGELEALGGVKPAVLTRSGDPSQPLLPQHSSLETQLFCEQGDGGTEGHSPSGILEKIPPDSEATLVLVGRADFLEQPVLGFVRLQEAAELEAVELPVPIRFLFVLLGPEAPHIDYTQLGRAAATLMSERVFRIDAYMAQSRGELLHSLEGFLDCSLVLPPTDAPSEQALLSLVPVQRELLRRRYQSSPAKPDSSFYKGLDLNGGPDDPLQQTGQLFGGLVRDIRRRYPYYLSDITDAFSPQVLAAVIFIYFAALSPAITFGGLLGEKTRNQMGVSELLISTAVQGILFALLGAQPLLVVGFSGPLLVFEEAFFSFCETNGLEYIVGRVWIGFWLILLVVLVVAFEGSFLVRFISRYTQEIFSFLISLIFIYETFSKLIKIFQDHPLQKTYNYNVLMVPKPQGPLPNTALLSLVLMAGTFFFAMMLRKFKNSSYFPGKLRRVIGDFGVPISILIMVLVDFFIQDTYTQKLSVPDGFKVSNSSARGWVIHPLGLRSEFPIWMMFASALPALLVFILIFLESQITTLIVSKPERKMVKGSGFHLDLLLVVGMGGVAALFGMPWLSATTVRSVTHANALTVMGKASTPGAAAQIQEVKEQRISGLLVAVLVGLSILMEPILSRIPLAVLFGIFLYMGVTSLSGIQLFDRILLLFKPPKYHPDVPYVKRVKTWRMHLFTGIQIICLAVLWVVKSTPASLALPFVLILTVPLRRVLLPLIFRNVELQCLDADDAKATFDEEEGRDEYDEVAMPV

Substance	pKd [1]	pKd [2]
Adducin (from UniProt P35611)	7.00	
Stomatin (from UniProt P27105)		7.00
